Measured values from patent publication US20230272016A1, “PEPTIDES FOR IMMUNOTHERAPY” (Second Genome, Inc., priority 2020, published 2023).

Legend:
[1] = molecular target: T1, Prohibitin (Homo sapiens, UniProt P35232); test: Pull-down and mass spectrometry target capture; assay type: binding; settings: 100.0 = no target protein observed in the control pulldown
T1 construct: endogenous in cells
T1 sequence (P35232 1-272): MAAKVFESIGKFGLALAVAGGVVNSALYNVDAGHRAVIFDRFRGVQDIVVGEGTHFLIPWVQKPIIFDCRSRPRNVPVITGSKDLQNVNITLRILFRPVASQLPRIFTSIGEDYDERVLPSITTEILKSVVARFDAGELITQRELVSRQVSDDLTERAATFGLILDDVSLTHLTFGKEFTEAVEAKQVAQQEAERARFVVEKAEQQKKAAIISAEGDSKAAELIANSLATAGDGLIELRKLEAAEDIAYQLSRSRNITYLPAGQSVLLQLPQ
Method: (§1) To identify binding partners of SG-3-0020 in human cells, pull-down and mass spectrometry analysis were used (FIG. 15). Multiple target capture experiments were performed with SG-3-0020 and controls. Binding conditions and cross-linkers were varied to achieve maximum enrichment of peptide over controls. Nine putative binding partners to SG-3-0020 were identified using MS and were nominated for confirmation using CRISPR Knock Out (KO) Experiments (Table 12, FIG. 16). The enrichment ratio was calculated as described below: […]

[2] = molecular target: T2, Tumor necrosis factor receptor superfamily member 4 (Homo sapiens, UniProt P43489); test: Pull-down and mass spectrometry target capture; assay type: binding; settings: 100.0 = no target protein observed in the control pulldown
T2 construct: endogenous in cells
T2 sequence (P43489 29-277): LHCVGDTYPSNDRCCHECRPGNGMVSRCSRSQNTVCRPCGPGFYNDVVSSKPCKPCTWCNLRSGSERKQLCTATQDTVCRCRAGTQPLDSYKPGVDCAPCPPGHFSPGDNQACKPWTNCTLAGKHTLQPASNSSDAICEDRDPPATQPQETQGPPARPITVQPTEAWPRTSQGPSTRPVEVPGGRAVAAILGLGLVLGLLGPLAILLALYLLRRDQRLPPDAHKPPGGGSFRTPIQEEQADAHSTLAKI
Method: as §1

[3] = molecular target: T3, CD2 (cluster of differentiation 2) (Homo sapiens, UniProt P06729); test: Pull-down and mass spectrometry target capture; assay type: binding; settings: 100.0 = no target protein observed in the control pulldown
T3 construct: endogenous in cells
T3 sequence (P06729 25-351): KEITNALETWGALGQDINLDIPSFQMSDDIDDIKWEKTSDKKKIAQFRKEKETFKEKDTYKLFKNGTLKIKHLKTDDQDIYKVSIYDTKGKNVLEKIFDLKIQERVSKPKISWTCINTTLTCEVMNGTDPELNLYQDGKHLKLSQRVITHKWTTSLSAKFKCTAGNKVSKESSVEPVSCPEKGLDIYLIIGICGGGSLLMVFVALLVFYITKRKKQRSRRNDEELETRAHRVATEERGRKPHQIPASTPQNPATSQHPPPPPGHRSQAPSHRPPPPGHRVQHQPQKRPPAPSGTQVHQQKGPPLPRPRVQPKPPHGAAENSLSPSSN
Method: as §1

[4] = tested on: naïve CD4+ and CD8+ T cells (Th0); settings: incubation of a naïve T cell with the polypeptide; cited from earlier work
[5] = tested on: primary human unstimulated T cells; test: CRISPR knock-out target validation in T cells stimulated with anti-CD3 and peptide; assay type: cell-based; settings: targets identified from mass spectrometry
Method: Functional validation was performed by CRISPR knock-out to confirm target effects on SG-3-0020-mediated activity. […] RNPs were introduced into primary human unstimulated T cells via Nucleofection and cells were cultured for 96 hours. OR1A1 served as negative control and CD3E was used as positive control. Post knock-down T cells were stimulated in vitro culture of Purified T cells with anti-CD3 (0.1 μg/mL) and SG-3-05429 (mutant SG-3-0020 with improved activity) (10 μM) and was incubated for 48 hours. A decrease in IFN-γ secretion (FIG. 17A) and a decrease in activated CD4 and CD8 T cell subsets was also observed (CD25+, PD-1+=Markers of T cell activation) (FIG. 17B) was observed after target knock-down compared to the negative control (OR1A1). […] Activation of CD2 has the potential to be a therapeutic opportunity.

[6] = molecular target: Bone marrow stromal antigen 2 (Homo sapiens, UniProt Q10589); test: Pull-down and mass spectrometry target capture; assay type: binding; design: endogenous in cells; settings: 100.0 = no target protein observed in the control pulldown
Method: as §1

[7] = molecular target: Cation-independent mannose-6-phosphate receptor (Homo sapiens, UniProt P11717); test: Pull-down and mass spectrometry target capture; assay type: binding; design: endogenous in cells; settings: 100.0 = no target protein observed in the control pulldown
Method: as §1

[8] = molecular target: Tumor necrosis factor (Homo sapiens, UniProt P01375); test: Pull-down and mass spectrometry target capture; assay type: binding; design: endogenous in cells; settings: 100.0 = no target protein observed in the control pulldown
Method: as §1

[9] = molecular target: Teneurin-3 (Homo sapiens, UniProt Q9P273); test: Pull-down and mass spectrometry target capture; assay type: binding; design: endogenous in cells; settings: 100.0 = no target protein observed in the control pulldown
Method: as §1

[10] = molecular target: Low-density lipoprotein receptor (Homo sapiens, UniProt P01130); test: Pull-down and mass spectrometry target capture; assay type: binding; design: endogenous in cells; settings: 100.0 = no target protein observed in the control pulldown
Method: as §1

[11] = tested on: Protein AMBP; test: Pull-down and mass spectrometry target capture; assay type: binding, human; settings: 100.0 = no target protein observed in the control pulldown
Method: as §1

[12] = molecular target: T4, CCR9 (human, UniProt P51686 1-369, limits assumed); test: cell-based or functional assay
T4 sequence (looked up): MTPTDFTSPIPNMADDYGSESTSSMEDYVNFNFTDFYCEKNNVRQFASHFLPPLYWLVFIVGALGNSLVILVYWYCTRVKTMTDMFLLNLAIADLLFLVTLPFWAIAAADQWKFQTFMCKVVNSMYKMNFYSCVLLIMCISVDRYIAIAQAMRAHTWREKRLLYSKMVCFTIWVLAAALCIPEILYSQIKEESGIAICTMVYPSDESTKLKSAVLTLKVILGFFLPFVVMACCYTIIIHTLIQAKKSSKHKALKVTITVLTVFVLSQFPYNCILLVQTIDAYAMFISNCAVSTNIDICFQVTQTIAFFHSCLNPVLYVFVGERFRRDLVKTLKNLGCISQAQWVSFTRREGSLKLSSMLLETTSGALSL

[13] = molecular target: T5, CHRM5 (human, UniProt P08912 1-532); test: cell-based or functional assay
T5 sequence (looked up): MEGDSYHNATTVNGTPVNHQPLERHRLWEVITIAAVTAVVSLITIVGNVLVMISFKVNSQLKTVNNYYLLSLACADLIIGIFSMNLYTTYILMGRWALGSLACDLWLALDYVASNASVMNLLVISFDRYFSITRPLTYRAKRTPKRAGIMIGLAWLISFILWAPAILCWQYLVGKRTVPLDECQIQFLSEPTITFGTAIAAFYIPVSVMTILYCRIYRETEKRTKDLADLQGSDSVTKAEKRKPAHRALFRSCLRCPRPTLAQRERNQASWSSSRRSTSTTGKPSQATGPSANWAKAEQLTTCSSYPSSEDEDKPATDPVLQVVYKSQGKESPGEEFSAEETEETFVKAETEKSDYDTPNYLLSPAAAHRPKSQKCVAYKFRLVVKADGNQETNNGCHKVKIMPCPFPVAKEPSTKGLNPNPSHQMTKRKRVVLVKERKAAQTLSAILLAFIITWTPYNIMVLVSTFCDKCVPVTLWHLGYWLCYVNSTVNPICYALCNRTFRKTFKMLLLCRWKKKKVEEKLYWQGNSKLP

[14] = molecular target: SSTR1 (human, UniProt P30872 1-391); test: cell-based or functional assay
[15] = molecular target: T6, HCRTR2 (human, UniProt O43614 1-444); test: cell-based or functional assay
T6 sequence (looked up): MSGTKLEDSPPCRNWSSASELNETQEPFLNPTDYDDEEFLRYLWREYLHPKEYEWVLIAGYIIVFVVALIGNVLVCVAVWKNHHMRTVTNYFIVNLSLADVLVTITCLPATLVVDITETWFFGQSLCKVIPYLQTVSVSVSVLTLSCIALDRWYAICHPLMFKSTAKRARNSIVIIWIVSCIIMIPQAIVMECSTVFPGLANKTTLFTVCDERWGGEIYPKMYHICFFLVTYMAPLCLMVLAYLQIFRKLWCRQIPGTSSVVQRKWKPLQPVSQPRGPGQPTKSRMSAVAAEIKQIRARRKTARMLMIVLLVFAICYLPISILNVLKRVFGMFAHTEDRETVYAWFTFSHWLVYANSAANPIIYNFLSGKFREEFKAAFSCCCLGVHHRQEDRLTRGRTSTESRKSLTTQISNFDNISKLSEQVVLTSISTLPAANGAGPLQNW

[16] = molecular target: T7, CXCR3 (human, UniProt P49682 1-368); test: cell-based or functional assay
T7 sequence (looked up): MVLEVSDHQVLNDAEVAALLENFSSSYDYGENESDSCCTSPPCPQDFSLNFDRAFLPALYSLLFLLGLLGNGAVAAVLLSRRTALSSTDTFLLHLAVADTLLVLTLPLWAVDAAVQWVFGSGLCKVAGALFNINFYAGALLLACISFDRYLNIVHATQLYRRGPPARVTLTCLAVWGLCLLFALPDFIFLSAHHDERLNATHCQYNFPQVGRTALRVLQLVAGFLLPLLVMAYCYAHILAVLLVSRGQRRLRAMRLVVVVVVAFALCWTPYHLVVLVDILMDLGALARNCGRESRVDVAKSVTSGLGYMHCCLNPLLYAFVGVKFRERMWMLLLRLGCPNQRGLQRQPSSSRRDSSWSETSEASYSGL

[17] = molecular target: T8, MRGPRX2 (human, UniProt Q96LB1 1-330); test: cell-based or functional assay
T8 sequence (looked up): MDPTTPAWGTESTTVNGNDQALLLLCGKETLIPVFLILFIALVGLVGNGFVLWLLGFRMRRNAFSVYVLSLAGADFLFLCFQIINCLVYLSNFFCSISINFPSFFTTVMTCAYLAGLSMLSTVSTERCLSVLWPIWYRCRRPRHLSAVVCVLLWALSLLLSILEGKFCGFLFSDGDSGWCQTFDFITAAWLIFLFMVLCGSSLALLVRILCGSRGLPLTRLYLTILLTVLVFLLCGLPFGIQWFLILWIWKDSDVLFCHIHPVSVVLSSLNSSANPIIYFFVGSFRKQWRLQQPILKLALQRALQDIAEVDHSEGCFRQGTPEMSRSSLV

[18] = molecular target: TSHR(L) (human, UniProt P16473-1 21-764, limits assumed); test: cell-based or functional assay
[19] = molecular target: CXCR4 (human, UniProt P61073 1-352); test: cell-based or functional assay
[20] = molecular target: T7, CXCR3; test: CXCR3 activity assay with ligand, with SG-3-00802 or SG-3-05021 added

TSHR(L), sequence (P16473 21-764 limits assumed): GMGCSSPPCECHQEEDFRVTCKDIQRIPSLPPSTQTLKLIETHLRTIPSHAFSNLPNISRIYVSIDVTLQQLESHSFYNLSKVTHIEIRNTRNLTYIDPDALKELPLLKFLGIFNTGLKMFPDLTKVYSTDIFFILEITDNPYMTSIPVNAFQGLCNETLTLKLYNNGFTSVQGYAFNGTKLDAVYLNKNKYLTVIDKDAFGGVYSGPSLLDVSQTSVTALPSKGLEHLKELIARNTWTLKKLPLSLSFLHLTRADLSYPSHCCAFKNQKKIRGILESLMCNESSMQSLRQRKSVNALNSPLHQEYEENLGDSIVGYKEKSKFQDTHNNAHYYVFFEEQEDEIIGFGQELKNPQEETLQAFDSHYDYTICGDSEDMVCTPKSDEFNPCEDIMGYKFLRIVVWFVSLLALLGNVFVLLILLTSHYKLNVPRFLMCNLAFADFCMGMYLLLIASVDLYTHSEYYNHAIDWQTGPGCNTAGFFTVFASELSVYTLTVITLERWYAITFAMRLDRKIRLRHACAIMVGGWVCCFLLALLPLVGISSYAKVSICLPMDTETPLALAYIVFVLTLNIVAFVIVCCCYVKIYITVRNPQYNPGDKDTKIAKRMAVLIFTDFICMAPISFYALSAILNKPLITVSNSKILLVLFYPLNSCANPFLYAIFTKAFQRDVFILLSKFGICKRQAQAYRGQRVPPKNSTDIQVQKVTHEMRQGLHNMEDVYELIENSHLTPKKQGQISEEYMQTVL
CXCR4, sequence (P61073 whole entry): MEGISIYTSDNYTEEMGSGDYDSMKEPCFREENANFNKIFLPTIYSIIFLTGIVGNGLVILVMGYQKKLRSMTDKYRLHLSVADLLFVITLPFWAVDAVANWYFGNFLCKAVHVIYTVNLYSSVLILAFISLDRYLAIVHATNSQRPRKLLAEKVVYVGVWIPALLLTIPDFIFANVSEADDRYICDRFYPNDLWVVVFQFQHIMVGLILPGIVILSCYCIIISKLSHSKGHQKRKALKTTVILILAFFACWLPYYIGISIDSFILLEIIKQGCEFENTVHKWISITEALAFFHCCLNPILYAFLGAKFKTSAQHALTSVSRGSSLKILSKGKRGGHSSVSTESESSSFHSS
SSTR1, sequence (P30872 whole entry): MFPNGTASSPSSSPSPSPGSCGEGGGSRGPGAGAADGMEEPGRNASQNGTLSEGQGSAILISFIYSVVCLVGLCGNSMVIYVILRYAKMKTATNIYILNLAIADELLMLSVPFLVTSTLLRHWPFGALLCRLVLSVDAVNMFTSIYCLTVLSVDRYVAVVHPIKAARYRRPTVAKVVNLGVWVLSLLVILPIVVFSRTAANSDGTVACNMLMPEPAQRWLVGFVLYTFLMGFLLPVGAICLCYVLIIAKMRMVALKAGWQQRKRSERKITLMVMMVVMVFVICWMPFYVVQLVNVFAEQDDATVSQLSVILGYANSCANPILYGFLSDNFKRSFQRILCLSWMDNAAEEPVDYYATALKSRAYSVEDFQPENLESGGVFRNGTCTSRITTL
Bone marrow stromal antigen 2, sequence (Q10589 1-161 limits assumed): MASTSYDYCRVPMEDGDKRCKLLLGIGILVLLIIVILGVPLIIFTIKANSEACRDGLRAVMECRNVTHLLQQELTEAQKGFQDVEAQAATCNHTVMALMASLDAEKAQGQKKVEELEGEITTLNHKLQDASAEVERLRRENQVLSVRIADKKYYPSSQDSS
Tumor necrosis factor, sequence (P01375 whole entry): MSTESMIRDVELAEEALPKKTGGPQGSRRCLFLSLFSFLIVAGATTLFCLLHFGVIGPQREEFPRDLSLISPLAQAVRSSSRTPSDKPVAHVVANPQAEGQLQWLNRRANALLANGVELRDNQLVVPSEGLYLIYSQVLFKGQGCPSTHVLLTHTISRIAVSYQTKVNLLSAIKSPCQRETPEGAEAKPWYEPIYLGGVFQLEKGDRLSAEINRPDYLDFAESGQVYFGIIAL
Low-density lipoprotein receptor, sequence (P01130 22-860): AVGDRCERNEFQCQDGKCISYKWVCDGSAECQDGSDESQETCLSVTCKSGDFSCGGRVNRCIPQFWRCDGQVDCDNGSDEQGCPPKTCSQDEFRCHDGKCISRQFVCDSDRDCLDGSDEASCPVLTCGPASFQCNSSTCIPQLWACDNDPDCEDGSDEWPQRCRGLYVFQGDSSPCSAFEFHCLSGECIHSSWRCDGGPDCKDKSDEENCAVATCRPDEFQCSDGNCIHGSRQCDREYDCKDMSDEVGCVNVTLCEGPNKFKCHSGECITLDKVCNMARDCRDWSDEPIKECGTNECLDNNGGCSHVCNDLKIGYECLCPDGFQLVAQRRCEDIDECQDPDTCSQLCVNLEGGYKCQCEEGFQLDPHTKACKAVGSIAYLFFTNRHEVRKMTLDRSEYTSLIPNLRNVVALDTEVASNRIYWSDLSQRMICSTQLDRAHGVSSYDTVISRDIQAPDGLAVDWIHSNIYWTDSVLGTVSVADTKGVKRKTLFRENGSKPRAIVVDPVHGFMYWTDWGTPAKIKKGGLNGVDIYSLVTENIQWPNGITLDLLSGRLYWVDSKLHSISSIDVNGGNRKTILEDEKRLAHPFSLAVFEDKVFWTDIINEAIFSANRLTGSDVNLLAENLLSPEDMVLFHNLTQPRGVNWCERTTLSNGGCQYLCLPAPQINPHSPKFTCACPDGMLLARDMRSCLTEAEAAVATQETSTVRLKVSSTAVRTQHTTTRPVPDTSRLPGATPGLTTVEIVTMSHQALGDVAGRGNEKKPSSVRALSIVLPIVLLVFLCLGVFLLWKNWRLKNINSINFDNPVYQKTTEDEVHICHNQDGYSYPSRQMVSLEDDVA

Molecule: MLSTKKTKTHDHYPCGRMRDPGWHDWRACLTHQGIEEDEWPV [SG-3-0020, Bifidobacterium polypeptide]
- Enrichment ratio [1]: 1.9
- Enrichment ratio [2]: 100.0
- Enrichment ratio [3]: 1.9
- number of CD4+ and/or CD8+ T cells having a CD25+/FoxP3− phenotype [4]: increase
- human targets confirmed via CRISPR KO experiments [5]: CD2, BST2, and TNF
- Enrichment ratio [6]: 34.5
- Enrichment ratio [7]: 2.1
- Enrichment ratio [8]: 67.2
- Enrichment ratio [9]: 3.4
- Enrichment ratio [10]: 100.0
- Enrichment ratio [11]: 69.1

B1: SG-3-00802 (peptide)
peptide: MKVRPSVKPMCEKCKIIRRKGRVMVICENPKHKQRQG
- % Agonist Activity, PathHunter β-arrestin [12]: 2%
- % Antagonist Activity, PathHunter β-arrestin [12]: -48%
- % Agonist Activity, PathHunter β-arrestin [13]: 28%
- % Antagonist Activity, PathHunter β-arrestin [13]: 11%
- % Agonist Activity, PathHunter β-arrestin [14]: -137%
- % Antagonist Activity, PathHunter β-arrestin [14]: 61%
- % Agonist Activity, PathHunter β-arrestin [15]: 0%
- % Antagonist Activity, PathHunter β-arrestin [15]: 67%
- % Agonist Activity, PathHunter β-arrestin [16]: -4%
- % Antagonist Activity, PathHunter β-arrestin [16]: -32%
- % Agonist Activity, PathHunter β-arrestin [17]: 66%
- % Antagonist Activity, PathHunter β-arrestin [17]: -9%
- % Agonist Activity, PathHunter β-arrestin [18]: 3%
- % Antagonist Activity, PathHunter β-arrestin [18]: 77%
- % Agonist Activity, PathHunter β-arrestin [19]: -14%
- % Antagonist Activity, PathHunter β-arrestin [19]: 99%

B2: CXCL11 (ligand, UniProt O14625 22-94, looked up)
chain: FPMFKRGRCLCIGPGVKAVKVADIEKASIMYPSNNCDKIEVIITLKENKGQRCLNPKSKQARLIIKKVERKNF
- binding result [20]: binds
